Data: US12281155

Columns and labels:
[1] = target: T1, recombinant SARS-CoV-2 Spike RBD domain, Wuhan (SARS-CoV-2); experiment: ELISA on coated RBD; settings: remark: other sources report otherwise
[2] = target: T1, recombinant SARS-CoV-2 Spike RBD …; experiment: competition ELISA, blocking of RBD binding to ACE2 ectodomain; settings: remark: other sources report otherwise

B1: SPK002 antibody (parental version Cv2.3194 described in WO 2022/228827) (antibody, V domains shown)
VH: EVQLVESGGGLIQPGGSLRLSCAASGITVTSNYMSWVRQAPGKGLEWVSVIYPGGSTFYADSVKGRFTISRDNSKNTLYLQMNSLRAEDTAVYYCARDLVVYGMDVWGQGTTVTVS
VL: EIVLTQSPGTLSLSPGERATLSCRASQSVSSSYLAWYQQKPGQAPRLLIYGASSRATGIPGRFSGSGSGTDFTLTISRLEPEDFAIYYCQQGVTFGGGTKVEIK
Binding AUC [1]: 34 | Blocking % [2]: 88%
